± gives the uncertainty stated by the source.
Assay: protein stability index of a GFP-peptide fusion (yeast GPS) (PSI 1-4); higher = more stable; sorted into four equal gates, so the index is relative within each strain
How it was run: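 Tiled yeast protein peptides of 17 residues were each joined downstream of GFP, on plasmids that also express Cherry. The pooled library was maintained in yeast, and mid-log cultures in leucine-free medium were sorted into four equal gates on the GFP/Cherry ratio. Plasmids from every gate were amplified by PCR and sequenced on Illumina, with barcodes linking reads to strains. The protein stability index of a peptide is its gate-number-weighted read frequency summed over the gates.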

Sequence | protein stability index (doa10∆) | protein stability index (pdr5∆) | protein stability index (san1∆) | protein stability index (ubr1∆)
SLNYKFTTNKSKDVSRL [SRP21] | 3.13 ± 0.12 | 3.04 ± 0.088 | 3.08 ± 0.081 | 3.14 ± 0.072
SLPFLLRHMPLASIPDI [SSN2] | 1.94 ± 0.072 | 1.69 ± 0.055 | 1.5 ± 0.072 | 1.44 ± 0.045
SLPSKLTKYKEMERIVK [SRP68] | 2.59 ± 0.055 | 2.55 ± 0.064 | 2.42 ± 0.046 | 2.86 ± 0.044
SLQDNSAAINNEDARAI [RPN4] | 3.12 ± 0.078 | 3.19 ± 0.057 | 2.94 ± 0.055 | 3.18 ± 0.05
SLRETNTTDPLGHTKAA [SIR2] | 2.77 ± 0.15 | 2.7 ± 0.15 | 2.85 ± 0.13 | 3.2 ± 0.082
SLSEGCDILVATPGRLI [PRP28] | 3.47 ± 0.12 | 3.23 ± 0.084 | 3.25 ± 0.047 | 3.28 ± 0.05
SLSYMAFPNASKKNRPT [RRP40] | 2.2 ± 0.22 | 2.89 ± 0.15 |  | 2.9 ± 0.14
SLTEATKTNVDNNSKAE [YLR335W/NUP2] | 3.14 ± 0.052 | 3.35 ± 0.064 | 3.14 ± 0.062 | 3.32 ± 0.042
SLTKDKSIRKDTVEEKK [SIR4] | 3.03 ± 0.064 | 3.23 ± 0.062 | 3.1 ± 0.056 | 3.12 ± 0.069
SLVIIILVKRYSIEMKP [ECM29] | 1.15 ± 0.049 | 1.38 ± 0.04 | 1.59 ± 0.069 | 2.04 ± 0.044
SMDTKKKHKQKKVLEID [BRN1] | 3.36 ± 0.063 | 3.32 ± 0.057 | 3.32 ± 0.039 | 3.33 ± 0.044
SMFGSDQKTGRAKSSSH [RPN4] | 3.02 ± 0.087 | 3.25 ± 0.11 | 3.14 ± 0.071 | 2.9 ± 0.076
SMGTMICGYTRKEGPTI [PRE2] | 3.27 ± 0.078 | 3.21 ± 0.077 | 3.33 ± 0.039 | 2.71 ± 0.069
SMPLEQLIPIILRQRGP [SRB4] | 2.05 ± 0.057 | 2.31 ± 0.058 | 2.32 ± 0.083 | 1.91 ± 0.055
SNAAGADDAISMHLLKD [SRB8] | 3.17 ± 0.1 | 2.49 ± 0.065 | 3.07 ± 0.099 | 2.76 ± 0.055
SNAVTQTNIWEENWDDV [SEM1] | 3.36 ± 0.085 | 3.46 ± 0.12 | 3.32 ± 0.084 | 3.43 ± 0.14
SNDLCSQIFDQLKDMQT [SRB8] | 2.72 ± 0.047 | 2.67 ± 0.042 | 2.47 ± 0.049 | 2.71 ± 0.034
SNDNLDLISEILKWVQW [MED1] | 3.03 ± 0.057 | 2.92 ± 0.058 | 2.9 ± 0.051 | 3.09 ± 0.047
SNEICDLAYQYVRALEL [SRB2] | 2.92 ± 0.047 | 2.77 ± 0.037 | 2.88 ± 0.046 | 3.08 ± 0.042
SNEIKVTNDLDTSAEKD [SIR4] | 3.29 ± 0.095 | 3.35 ± 0.062 | 3.26 ± 0.055 | 3.04 ± 0.055
SNHNNLNLNNSELQPQN [SNF2] | 3.02 ± 0.044 | 2.7 ± 0.062 | 2.97 ± 0.051 | 2.81 ± 0.056
SNIDYQTLLANSDHAKF [SNF2] | 2.24 ± 0.084 | 2.28 ± 0.093 | 2.32 ± 0.11 | 2.53 ± 0.075
SNIEQTESLRVENSVLI [YIL149C/MLP2] | 3.25 ± 0.091 | 3.09 ± 0.14 | 3.08 ± 0.049 | 3.07 ± 0.064
SNIIHDESDTISFRSNL [SNF6] | 2.79 ± 0.1 | 2.68 ± 0.079 | 2.85 ± 0.098 | 2.7 ± 0.067
SNKPIFLFAPELGAINL [SWI1] | 2.23 ± 0.062 | 1.91 ± 0.051 | 2.08 ± 0.089 | 2.11 ± 0.046
SNPQHIIQPFLDNSKMD [RGR1] | 2.91 ± 0.062 | 2.98 ± 0.075 | 2.53 ± 0.077 | 2.86 ± 0.034
SNPSGNYTGWKAISVGA [PRE9] | 1.89 ± 0.073 | 2.5 ± 0.061 | 2.54 ± 0.086 | 2.22 ± 0.048

Sequence | protein stability index (doa10∆) | protein stability index (pdr5∆) | protein stability index (san1∆) | protein stability index (ubr1∆)
SNSAGTSLFGSSSAQQT [YJL041W/NSP1] | 3.15 ± 0.069 | 3.08 ± 0.079 | 3.12 ± 0.073 | 3.17 ± 0.052
SNSSELEPDYQAPFSTS [MED1] | 2.7 ± 0.044 | 2.97 ± 0.057 | 2.82 ± 0.073 | 3.05 ± 0.046
SNTRTMTYKNKLTVCFD [MED2] | 2.51 ± 0.073 | 2.53 ± 0.11 | 1.46 ± 0.24 | 1.35 ± 0.056
SPDQMRNLQMGLRNQNM [GRR1] | 3.23 ± 0.12 | 3.52 ± 0.16 | 3.22 ± 0.088 | 2.71 ± 0.082
SPEEQRSLLQEAIETCK [GAL11] | 1.88 ± 0.099 | 2.97 ± 0.13 | 2.63 ± 0.18 | 2.88 ± 0.069
SPFGGSSHAKGIVLEKL [RPS23A] | 3.19 ± 0.096 | 3.14 ± 0.074 | 3.12 ± 0.067 | 3.17 ± 0.063
SPIPFPPLTYKNDTKIL [PRP8] | 2.91 ± 0.057 | 2.56 ± 0.045 | 2.73 ± 0.059 | 2.24 ± 0.029
SPKPYAVKYGLNHVVAL [RPL8A] | 2.22 ± 0.066 | 2.42 ± 0.06 | 2.44 ± 0.071 | 2.08 ± 0.044
SPLDIYSDEASAQKKRF [RPS2] | 2.74 ± 0.092 | 2.86 ± 0.082 | 3.03 ± 0.07 | 3.03 ± 0.061
SPVELSRMFEEVSGSIQ [SMC1] | 2.9 ± 0.06 | 2.16 ± 0.052 | 2.38 ± 0.065 | 3.02 ± 0.062
SPVQIAFNRFMAESLVD [SSN8] | 1.52 ± 0.043 | 1.97 ± 0.045 | 1.63 ± 0.11 | 1.52 ± 0.044
SQDATKVDATPEESKPI [YLR335W/NUP2] | 2.87 ± 0.12 | 3.17 ± 0.089 | 2.81 ± 0.08 | 3.18 ± 0.06
SQIRLYAKFKRNTMMIQ [RGR1] | 2.44 ± 0.21 | 2.37 ± 0.11 | 2.14 ± 0.11 | 2.61 ± 0.13
SQKQTLIKKPLTVFYAI [SSN3] | 2.1 ± 0.089 | 2.13 ± 0.061 | 2.12 ± 0.085 | 2.01 ± 0.057
SQLAKWKTAEEVSALVR [PRP8] | 1.26 ± 0.17 |  |  | 
SQPKIGYGSNKKTKFLS [RPL32] | 1.23 ± 0.15 | 1.52 ± 0.16 |  | 1.38 ± 0.096
SQPTAAGGPDMTTPQNI [DSN1] | 1.82 ± 0.065 | 1.9 ± 0.063 | 1.89 ± 0.1 | 1.36 ± 0.053
SQSKMMSSQISSLIPHC [MTR3] | 2.35 ± 0.057 | 2.09 ± 0.039 | 2.21 ± 0.048 | 2.31 ± 0.042
SQSLGVSNKFEKIFHYG [PUP3] | 3.47 ± 0.13 | 3.5 ± 0.17 | 2.95 ± 0.13 | 3.61 ± 0.14
SQTPSFNTNSSFTPSTV [YOR098C/NUP1] | 2.4 ± 0.033 | 2.671 ± 0.025 | 2.52 ± 0.033 | 2.898 ± 0.026
SQVVWIRRLRVLRRLLA [RPL19A] | 1.22 ± 0.054 | 1.46 ± 0.049 | 1.44 ± 0.12 | 1.29 ± 0.053
SRAQILQIHSRKMTTDD [RPT5] | 2.72 ± 0.082 | 2.43 ± 0.055 | 2.92 ± 0.068 | 3.08 ± 0.046
SRDELIRLAKTLKKNNV [RPN10] | 1.77 ± 0.086 | 1.81 ± 0.091 | 2.42 ± 0.17 | 2.07 ± 0.089
SRDLWCFSINDDPVPTP [SSN2] | 2.21 ± 0.085 | 2.21 ± 0.088 | 2.94 ± 0.081 | 2.63 ± 0.1
SRENNSEYMVFGKLAFP [YJL039C/NUP192] | 2.49 ± 0.064 | 2.54 ± 0.072 | 2.97 ± 0.069 | 2.79 ± 0.082
SREVLRYEEFADKVKLG [RPC40] | 2.96 ± 0.08 | 3.26 ± 0.19 | 3.17 ± 0.12 | 3.21 ± 0.14

From the supplement of paper PMC9732359
